Results on three substances are retold here after EP1088069B1.

Assay in all cases: cell-based or functional assay
Assay [1] has as its target Angiostatin + Binding Domain (yeast two-hybrid bait fusion) (UniProt P00747).
Another assay has as its target Binding Domain alone.
In a further assay the target is p53 + Binding Domain.

UniProt P00747, sequence (P00747 99-459): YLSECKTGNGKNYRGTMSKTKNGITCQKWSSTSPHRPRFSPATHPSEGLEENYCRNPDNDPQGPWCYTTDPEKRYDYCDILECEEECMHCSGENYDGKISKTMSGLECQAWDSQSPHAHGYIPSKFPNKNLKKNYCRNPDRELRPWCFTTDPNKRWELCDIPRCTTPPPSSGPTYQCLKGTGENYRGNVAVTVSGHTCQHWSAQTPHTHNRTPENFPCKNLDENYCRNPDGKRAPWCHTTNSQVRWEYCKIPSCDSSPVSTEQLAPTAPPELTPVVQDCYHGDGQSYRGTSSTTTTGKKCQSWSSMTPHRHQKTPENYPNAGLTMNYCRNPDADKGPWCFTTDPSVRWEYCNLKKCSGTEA

“Activation Domain alone (from UniProt P04386 768-881)”: the β-Gal Activity in assay [1] was below 0.04 u. In the case of “Big3 - Activation Domain (yeast two-hybrid prey fusion) (from UniProt Q4VCS5 871-1013)”, the β-Gal Activity with Binding Domain alone was 0.07 u; in the assay with p53 + Binding Domain, 0.05 u; in assay [1], 15 u. Turning to “SV40LT - Activation Domain (from UniProt P03070 84-708)”, the β-Gal Activity with p53 + Binding Domain stood at 90 u.
